# From the supplement of paper PMC9112550, “Optimization of the antimicrobial peptide Bac7 by deep mutational scanning” (BMC Biology, 2022)
# Test system: Escherichia coli TOP10
# Assay: shrunken log2 fold change of peptide-encoding DNA abundance (4.5 h post-induction vs induction); higher = less antimicrobial activity (less host growth inhibition)
# Settings: time post-induction: 4.5 h; library: site-saturation at positions 5, 18, 19, 20
# 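Note: peptides expressed intracellularly from a pBAD plasmid library in pooled LB shake-flask culture, induced with 0.3% L-arabinose, DNA abundance read by NGS, three biological replicates, DESeq2 with apeglm shrinkage.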
row,Sequence,shrunken log2 fold change
1,RRIRHRPPRLPRPRPRPWLEPRP,-0.0848
2,RRIRNRPPRLPRPRPRPCIWPRP,0.131
3,RRIRGRPPRLPRPRPRPPQWPRP,0.801
4,RRIRQRPPRLPRPRPRPCKQPRP,0.0108
5,RRIRVRPPRLPRPRPRPLHIPRP,-0.528
6,RRIRVRPPRLPRPRPRPKHCPRP,0.0148
7,RRIRDRPPRLPRPRPRPTCQPRP,1.08
8,RRIRNRPPRLPRPRPRPLMRPRP,0.627
9,RRIRWRPPRLPRPRPRPQYPPRP,-0.139
10,RRIRMRPPRLPRPRPRPLNQPRP,-0.0442
11,RRIRNRPPRLPRPRPRPKMSPRP,-0.064
12,RRIRDRPPRLPRPRPRPFDWPRP,0.374
13,RRIRNRPPRLPRPRPRPYMEPRP,-0.0924
14,RRIRYRPPRLPRPRPRPDVKPRP,-0.294
15,RRIRVRPPRLPRPRPRPTTGPRP,0.141
16,RRIRIRPPRLPRPRPRPCVSPRP,-0.012
17,RRIRIRPPRLPRPRPRPVRWPRP,0.474
18,RRIRQRPPRLPRPRPRPHTWPRP,-0.206
19,RRIRWRPPRLPRPRPRPTPMPRP,0.24
20,RRIRRRPPRLPRPRPRPRIQPRP,0.241
21,RRIRSRPPRLPRPRPRPCSAPRP,-0.0813
22,RRIRPRPPRLPRPRPRPSVDPRP,-0.187
23,RRIRNRPPRLPRPRPRPWSQPRP,-0.0539
24,RRIRIRPPRLPRPRPRPTNGPRP,-0.166
25,RRIRLRPPRLPRPRPRPSELPRP,-0.195

row,Sequence,shrunken log2 fold change
1,RRIRHRPPRLPRPRPRPPQRPRP,0.248
2,RRIRNRPPRLPRPRPRPWLEPRP,-0.00992
3,RRIRGRPPRLPRPRPRPGMKPRP,0.484
4,RRIRDRPPRLPRPRPRPCAAPRP,0.704
5,RRIRLRPPRLPRPRPRPTATPRP,0.817
6,RRIRKRPPRLPRPRPRPSEFPRP,0.154
7,RRIRLRPPRLPRPRPRPRLVPRP,0.0317
8,RRIRMRPPRLPRPRPRPKPYPRP,0.314
9,RRIRLRPPRLPRPRPRPICMPRP,-0.456
10,RRIRQRPPRLPRPRPRPDAVPRP,-0.0012
11,RRIRWRPPRLPRPRPRPYYDPRP,-0.262
12,RRIRMRPPRLPRPRPRPVYAPRP,0.243
13,RRIRVRPPRLPRPRPRPFRMPRP,-0.247
14,RRIRWRPPRLPRPRPRPQALPRP,0.113
15,RRIRRRPPRLPRPRPRPNNFPRP,-0.00104
16,RRIRCRPPRLPRPRPRPSPAPRP,1.35
17,RRIRLRPPRLPRPRPRPPGQPRP,0.625
18,RRIRLRPPRLPRPRPRPTWTPRP,-0.0607
19,RRIRLRPPRLPRPRPRPRPYPRP,-0.0267
20,RRIRKRPPRLPRPRPRPEAKPRP,2.54
21,RRIRARPPRLPRPRPRPPYYPRP,0.0635
22,RRIRVRPPRLPRPRPRPTPEPRP,0.639
23,RRIRFRPPRLPRPRPRPGLVPRP,-0.0941
24,RRIRGRPPRLPRPRPRPAHFPRP,0.238
25,RRIRPRPPRLPRPRPRPHGEPRP,-0.159

row,Sequence,shrunken log2 fold change
1,RRIRERPPRLPRPRPRPRKKPRP,-0.111
2,RRIRNRPPRLPRPRPRPHGRPRP,0.00746
3,RRIRLRPPRLPRPRPRPICCPRP,-0.205
4,RRIRRRPPRLPRPRPRPAHHPRP,0.332
5,RRIRTRPPRLPRPRPRPFFMPRP,-0.231
6,RRIRFRPPRLPRPRPRPLFSPRP,-0.376
7,RRIRFRPPRLPRPRPRPHACPRP,-0.867
8,RRIRPRPPRLPRPRPRPQWEPRP,0.155
9,RRIRTRPPRLPRPRPRPGGWPRP,1.23
10,RRIRSRPPRLPRPRPRPTGVPRP,0.0241
11,RRIRQRPPRLPRPRPRPKFCPRP,-0.0186
12,RRIRARPPRLPRPRPRPRYWPRP,0.213
13,RRIRHRPPRLPRPRPRPEPRPRP,0.137
14,RRIRERPPRLPRPRPRPDRNPRP,-0.25
15,RRIRLRPPRLPRPRPRPQDTPRP,-0.409
16,RRIRQRPPRLPRPRPRPNHFPRP,0.189
17,RRIRRRPPRLPRPRPRPMGHPRP,0.129
18,RRIRFRPPRLPRPRPRPGCYPRP,-0.238
19,RRIRVRPPRLPRPRPRPTREPRP,0.59
20,RRIRPRPPRLPRPRPRPNMSPRP,-0.485
21,RRIRERPPRLPRPRPRPGGLPRP,-0.00977
22,RRIRIRPPRLPRPRPRPRHTPRP,-0.34
23,RRIRRRPPRLPRPRPRPSAWPRP,0.462
24,RRIRVRPPRLPRPRPRPFEEPRP,-0.000457
25,RRIRNRPPRLPRPRPRPTQMPRP,0.0452

row,Sequence,shrunken log2 fold change
1,RRIRERPPRLPRPRPRPDFRPRP,-0.0858
2,RRIRGRPPRLPRPRPRPHDTPRP,0.358
3,RRIRVRPPRLPRPRPRPCEYPRP,-0.00327
4,RRIRHRPPRLPRPRPRPWRNPRP,0.00611
5,RRIRPRPPRLPRPRPRPNDTPRP,-0.338
6,RRIRHRPPRLPRPRPRPAWRPRP,0.654
7,RRIRNRPPRLPRPRPRPWLIPRP,-0.0217
8,RRIRMRPPRLPRPRPRPAPIPRP,0.618
9,RRIRERPPRLPRPRPRPAVVPRP,-0.171
10,RRIRKRPPRLPRPRPRPEINPRP,0.0365
11,RRIRERPPRLPRPRPRPHKEPRP,-0.189
12,RRIRQRPPRLPRPRPRPPIKPRP,-0.0648
13,RRIRDRPPRLPRPRPRPNPEPRP,0.0935
14,RRIRPRPPRLPRPRPRPEGTPRP,0.0836
15,RRIRNRPPRLPRPRPRPHLPPRP,0.0211
16,RRIRPRPPRLPRPRPRPPWVPRP,0.356
17,RRIRLRPPRLPRPRPRPGLMPRP,-0.0199
18,RRIRQRPPRLPRPRPRPTWEPRP,0.0645
19,RRIRLRPPRLPRPRPRPSHIPRP,-0.877
20,RRIRQRPPRLPRPRPRPHIHPRP,-0.476
21,RRIRYRPPRLPRPRPRPEMCPRP,-0.238
22,RRIRHRPPRLPRPRPRPSDFPRP,0.00333
23,RRIRLRPPRLPRPRPRPYTCPRP,-0.223
24,RRIRCRPPRLPRPRPRPGDHPRP,-0.583
25,RRIRDRPPRLPRPRPRPLMYPRP,-0.00328

row,Sequence,shrunken log2 fold change
1,RRIRNRPPRLPRPRPRPGAQPRP,0.0369
2,RRIRTRPPRLPRPRPRPRICPRP,-0.201
3,RRIRMRPPRLPRPRPRPDQFPRP,-0.00541
4,RRIRTRPPRLPRPRPRPGIQPRP,0.131
5,RRIRIRPPRLPRPRPRPTKCPRP,-0.696
6,RRIRLRPPRLPRPRPRPSTVPRP,-0.938
7,RRIRLRPPRLPRPRPRPRACPRP,0.223
8,RRIRMRPPRLPRPRPRPEQFPRP,0.216
9,RRIRERPPRLPRPRPRPIEAPRP,-0.0164
10,RRIRSRPPRLPRPRPRPIADPRP,0.191
11,RRIRLRPPRLPRPRPRPRCQPRP,0.72
12,RRIRLRPPRLPRPRPRPTKQPRP,0.103
13,RRIRVRPPRLPRPRPRPEVMPRP,0.344
14,RRIRERPPRLPRPRPRPYCYPRP,-0.979
15,RRIRQRPPRLPRPRPRPANKPRP,-0.397
16,RRIRLRPPRLPRPRPRPNFDPRP,0.0771
17,RRIRRRPPRLPRPRPRPHPPPRP,0.746
18,RRIRERPPRLPRPRPRPNGWPRP,-0.00266
19,RRIRCRPPRLPRPRPRPTVIPRP,-0.907
20,RRIRDRPPRLPRPRPRPTQPPRP,0.0164
21,RRIRERPPRLPRPRPRPKPWPRP,0.287
22,RRIRARPPRLPRPRPRPIRLPRP,-0.0928
23,RRIRMRPPRLPRPRPRPRICPRP,0.113
24,RRIRVRPPRLPRPRPRPCHDPRP,-0.122
25,RRIRVRPPRLPRPRPRPTEHPRP,-0.0827

row,Sequence,shrunken log2 fold change
1,RRIRKRPPRLPRPRPRPSVSPRP,0.172
2,RRIRTRPPRLPRPRPRPENDPRP,-0.0847
3,RRIRQRPPRLPRPRPRPCQNPRP,-0.173
4,RRIRQRPPRLPRPRPRPWAHPRP,-0.0595
5,RRIRGRPPRLPRPRPRPKGQPRP,0.184
6,RRIRHRPPRLPRPRPRPNNRPRP,-0.329
7,RRIRMRPPRLPRPRPRPFGCPRP,0.254
8,RRIRPRPPRLPRPRPRPAMFPRP,0.0516
9,RRIRGRPPRLPRPRPRPSAWPRP,1.94
10,RRIRIRPPRLPRPRPRPLLEPRP,-0.437
11,RRIRTRPPRLPRPRPRPGEMPRP,0.136
12,RRIRKRPPRLPRPRPRPHRYPRP,0.321
13,RRIRRRPPRLPRPRPRPTTVPRP,0.792
14,RRIRCRPPRLPRPRPRPESEPRP,0.237
15,RRIRLRPPRLPRPRPRPFWRPRP,0.252
16,RRIRSRPPRLPRPRPRPPDKPRP,0.0307
17,RRIRKRPPRLPRPRPRPDIIPRP,0.194
18,RRIRARPPRLPRPRPRPMGIPRP,-0.00146
19,RRIRHRPPRLPRPRPRPSERPRP,-0.0252
20,RRIRERPPRLPRPRPRPLEQPRP,-0.0811
21,RRIRWRPPRLPRPRPRPCVCPRP,0.222
22,RRIRVRPPRLPRPRPRPQQDPRP,0.151
23,RRIRERPPRLPRPRPRPSSYPRP,-1.12
24,RRIRRRPPRLPRPRPRPCITPRP,-0.846
25,RRIRQRPPRLPRPRPRPFDTPRP,-0.144
